Reference: patent US20250269051A1 (ALMAC DISCOVERY, published 2025)

Experiments:
human ROR1-Fc (CHO) = molecular target: T1, human ROR1-Fc (CHO) (human); experiment: ELISA on coated human ROR1-hFc, one concentration (5 µg/mL)
T1 construct: ROR1 extracellular domain fused to human Fc; also called huROR1-Fc; hROR1-Fc
Protocol: (§1) In brief, ELISA method as follows. Wells coated with 100ng of ROR1-hFc antigen and incubated, covered, at room temperature for 2 hr. Plates washed 3×400ul per well with PBST (PBS+0.05% Tween 20 (v/v)), then blocked with 4% skimmed milk powder (w/v) in PBST for 1 hour at 37° C. Plates washed as before plus additional wash in PBS alone. HisMyc-tagged binding proteins were diluted in 4% milk PBST and incubated overnight at 4° C. Plates washed 3× with PBST, 3× PBS and binding detected using appropriate secondary detection antibody in 4% milk PBST, room temperature 1 hour. Secondary antibodies used include: [0658] Anti-c-Myc, HRP (Invitrogen #R951-25) [0659] Mouse anti-polyHis, HRP (Sigma #A7058)

human ROR2-Fc (CHO) = molecular target: T2, human ROR2-Fc (CHO) (human); experiment: ELISA; hROR2-hFc coated
T2 construct: also called hROR2-hFc
T2 sequence (chain, as listed by the source limits assumed): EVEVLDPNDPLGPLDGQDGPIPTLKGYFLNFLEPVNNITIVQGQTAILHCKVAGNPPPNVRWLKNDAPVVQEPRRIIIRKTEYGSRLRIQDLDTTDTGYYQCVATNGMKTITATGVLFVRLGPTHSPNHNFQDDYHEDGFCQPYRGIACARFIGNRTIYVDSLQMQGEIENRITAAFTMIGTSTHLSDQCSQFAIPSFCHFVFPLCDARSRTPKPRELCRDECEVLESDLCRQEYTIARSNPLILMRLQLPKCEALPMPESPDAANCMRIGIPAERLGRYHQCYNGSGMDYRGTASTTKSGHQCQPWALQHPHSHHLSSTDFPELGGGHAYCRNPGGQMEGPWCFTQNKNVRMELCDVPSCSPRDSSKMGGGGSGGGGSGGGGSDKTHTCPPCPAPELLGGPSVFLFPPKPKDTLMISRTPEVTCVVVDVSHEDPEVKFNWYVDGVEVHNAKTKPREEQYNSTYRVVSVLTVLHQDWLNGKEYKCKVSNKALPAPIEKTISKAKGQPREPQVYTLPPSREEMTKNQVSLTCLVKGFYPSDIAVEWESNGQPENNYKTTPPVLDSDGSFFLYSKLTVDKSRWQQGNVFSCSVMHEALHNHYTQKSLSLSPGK
Protocol: as §1
The same ELISA procedure was employed as described above but with either mROR1-hFc or hROR2-hFc coated on the plates.

T1 sequence (chain, as listed by the source limits assumed): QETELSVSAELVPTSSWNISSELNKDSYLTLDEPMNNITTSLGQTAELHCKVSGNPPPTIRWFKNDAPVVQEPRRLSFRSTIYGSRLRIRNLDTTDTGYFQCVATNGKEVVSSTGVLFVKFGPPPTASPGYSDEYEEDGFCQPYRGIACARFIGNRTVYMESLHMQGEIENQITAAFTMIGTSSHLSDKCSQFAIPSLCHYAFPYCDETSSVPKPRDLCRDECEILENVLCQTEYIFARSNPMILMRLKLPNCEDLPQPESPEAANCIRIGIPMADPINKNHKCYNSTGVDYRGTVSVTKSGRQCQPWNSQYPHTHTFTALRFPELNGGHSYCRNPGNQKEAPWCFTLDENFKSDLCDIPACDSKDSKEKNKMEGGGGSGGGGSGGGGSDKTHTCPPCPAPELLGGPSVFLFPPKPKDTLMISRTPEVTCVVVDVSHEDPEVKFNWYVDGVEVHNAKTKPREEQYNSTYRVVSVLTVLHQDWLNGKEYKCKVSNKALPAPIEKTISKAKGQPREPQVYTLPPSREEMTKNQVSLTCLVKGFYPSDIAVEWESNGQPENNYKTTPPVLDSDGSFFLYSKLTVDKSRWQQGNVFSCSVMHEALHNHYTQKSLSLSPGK

Binder | binding result (human ROR1-Fc (CHO)) | binding result (human ROR2-Fc (CHO))
AA5.S (VNAR, P3A1 G1 loop variant from the selection on streptavidin beads; also called P3A1 G1 loop variant AA5.S) VNAR: TRVDQSPSSLSASVGDRVTITCVLTGTGYGLYSSTYWYRKNPGSSDEERIIIGGRYSESVNKGSKSFTLTISSLQPEDSATYYCRAREARHPWLRQWYDGAGTKVEIKQ | binds | –
AC5.S (VNAR, P3A1 G1 loop variant from the immunotube selection; also called P3A1 G1 loop variant AC5.S) VNAR: TRVDQSPSSLSASVGDRVTITCVLTDTSYGLYSSTYWYRKNPGSSNKERMSISGRYSESVNKGSKSFTLTISSLQPEDSATYYCRAREARHPWLRQWYDGAGTKVEIKQ | binds | –
NAC6.S (VNAR, VNAR, P3A1 G1 loop variant; entry includes the HisMyc tag; also called P3A1 G1 NAC6.S; P3A1G1 NAC6.S) VNAR: TRVDQSPSSLSASVGDRVTITCVLTDTRYALYSSTYWYRKNPGSTDEERISIGGRYSESVNKGSKSFTLTISSLQPEDSATYYCRAREARHPWLRQWYDGAGTKVEIKQ | – | no binding
AE3.S (VNAR, VNAR, P3A1 G1 loop variant; entry includes the HisMyc tag; also called P3A1 G1 AE3.S; P3A1G1 AE3.S) VNAR: TRVDQSPSSLSASVGDRVTITCVLTGTRYGLYSSTYWYRKNPGSSDEERISISGRYSESVNKGTKSFTLTISSLQPEDSATYYCRAREARHPWLRQWYDGAGTKVEIKQ | – | no binding
